B1: Guide 173 ; HPRT1 target of guide 173 (ssRNA ; dsDNA)
RNA: CUUCUAUAGCCUCCUUCCCCGUCAUAGUUCCAUUAAAGCCAAAAGUGGCUUUGAUGUUUCUAUGAUAAGGGUUUCGACCCGUGGCGUCGGGGAUCGCCUGCCCAUUGAAAUGGGCUUCUCCCCAUUUAUU
DNA 1: CTTCTATAGCCTCCTTCCCC
DNA 2: GGGGAAGGAGGCTATAGAAG

What was measured:
[1] = system: T1, APG07433.1 (Bacillus sp.); assay: cleavage_in_vitro; conditions: PAM NNNNCC; NTS cut 4, TS cut 3, 1 nt 5' overhang (Table 3)
T1 sequence: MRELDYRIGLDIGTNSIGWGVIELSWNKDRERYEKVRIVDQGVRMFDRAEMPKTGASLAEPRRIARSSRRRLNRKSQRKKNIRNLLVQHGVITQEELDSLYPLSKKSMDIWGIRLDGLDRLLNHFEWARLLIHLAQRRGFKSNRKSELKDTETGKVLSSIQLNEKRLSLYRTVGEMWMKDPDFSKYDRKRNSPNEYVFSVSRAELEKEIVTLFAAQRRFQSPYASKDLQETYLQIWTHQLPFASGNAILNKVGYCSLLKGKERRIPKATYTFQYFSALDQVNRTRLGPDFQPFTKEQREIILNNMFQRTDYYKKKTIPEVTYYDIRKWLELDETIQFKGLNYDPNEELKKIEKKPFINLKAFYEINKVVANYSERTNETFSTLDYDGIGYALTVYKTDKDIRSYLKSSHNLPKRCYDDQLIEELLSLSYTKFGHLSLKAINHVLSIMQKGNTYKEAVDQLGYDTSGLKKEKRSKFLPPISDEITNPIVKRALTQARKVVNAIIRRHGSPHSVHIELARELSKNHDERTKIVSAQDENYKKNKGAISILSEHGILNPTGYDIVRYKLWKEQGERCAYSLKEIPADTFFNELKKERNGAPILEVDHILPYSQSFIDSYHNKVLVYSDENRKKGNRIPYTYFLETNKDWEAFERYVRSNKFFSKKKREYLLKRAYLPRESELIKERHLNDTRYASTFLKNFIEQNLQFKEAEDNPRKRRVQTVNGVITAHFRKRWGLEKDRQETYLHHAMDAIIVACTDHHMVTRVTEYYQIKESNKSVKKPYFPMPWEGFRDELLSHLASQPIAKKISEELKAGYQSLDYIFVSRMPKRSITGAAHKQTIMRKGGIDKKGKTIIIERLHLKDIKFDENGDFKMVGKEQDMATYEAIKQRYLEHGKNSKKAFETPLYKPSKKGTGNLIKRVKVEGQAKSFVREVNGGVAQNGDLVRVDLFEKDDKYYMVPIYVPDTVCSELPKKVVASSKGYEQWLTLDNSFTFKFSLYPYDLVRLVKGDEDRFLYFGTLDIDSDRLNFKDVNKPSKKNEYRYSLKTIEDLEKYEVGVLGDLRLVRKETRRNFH

APG07433.1 = target: T2, APG07433.1 (Bacillus sp.); assay: cell_activity; HEK293T; PAM NNNNCC; conditions: tags: human cells: N-term SV40 NLS and 3xFLAG, C-term nucleoplasmin NLS
T2 chain: T1 sequence
Description: The constructs described above were introduced into mammalian cells. One day prior to transfection, 1×10⁵ HEK293T cells/well (Sigma) were plated in 24-well dishes in Dulbecco's modified Eagle medium (DMEM) plus 10% (vol/vol) fetal bovine serum (Gibco) and 1% Penicillin-Streptomycin (Gibco). The next day when the cells were at 50-60% confluency, 500 ng of a RGN expression plasmid plus 500 ng of a single gRNA expression plasmid were co-transfected using […] of Lipofectamine 3000 (Thermo Scientific) per well, following the manufacturer's instructions. After 48 hours of growth, total genomic DNA was harvested using a genomic DNA isolation kit (Machery-Nagel) according to the manufacturer's instructions.
Additionally, products from PCR #2 containing Illumina overhang sequences underwent library preparation following the Illumina 16S Metagenomic Sequencing Library protocol. Deep sequencing was performed on an Illumina Mi-Seq platform by a service provider (MOGene). Typically 200,000 of 250 bp paired-end reads (2×100,000 reads) are generated per amplicon. The reads were analyzed using CRISPResso (Pinello, et al. 2016 Nature Biotech, 34:695-697) to calculate the rates of editing. Output alignments were hand-curated to confirm insertion and deletion sites as well as identify microhomology sites at the recombination sites. All experiments were performed in human cells. The “target sequence” is the targeted sequence within the gene target. For each target sequence, the guide RNA comprised the complementary RNA target sequence and the appropriate sgRNA depending on the RGN used.

| Molecule | activity [1] [% cleaved] | activity (APG07433.1) [% editing] |
| --- | --- | --- |
| GAGCGGACAGCAGCUUCCUAUAUCUCGUACNNNNNNNNNNNNNNNNNNNNNNNNNGUCAUAGUUCCAUUAAAGCCAAAAGUGGCUUUGAUGUUUCUAUGAUAAGGGUUUCGACCCGUGGCGUCGGGGAUCGCCUGCCCAUUGAAAUGGGCUUCUCCCCAUUUAUU / GAGCGGACAGCAGCTTCCTATATCTCGTAC / GTACGAGATATAGGAAGCTGCTGTCCGCTC [Sequence 1 sgRNA for APG07433.1 ; Sequence 1 target] | 86 |  |
| B1 |  | 26.6 |

Source: patent US20250283117, “RNA-GUIDED NUCLEASES AND ACTIVE FRAGMENTS AND VARIANTS THEREOF AND METHODS OF USE” (Life Edit Therapeutics, Inc., published 2025)
